Experimental data as given in publication PMC7587234.

Columns and labels:
Assay in all cases: SPR
[1] = biological target: cynomolgus monkey neonatal Fc receptor (cyno FcRn), soluble heterodimer (UniProt Q8SPV9+Q8SPW0); conditions: pH 7.4; not stated (pH 7.4)
[2] = biological target: human neonatal Fc receptor (hFcRn), soluble heterodimer (UniProt P55899+P61769); conditions: pH 7.4; not stated (pH 7.4)
[3] = biological target: FcγRIIIa (UniProt P08637)
[4] = biological target: biotinylated cynomolgus FcRn, p51 subunit with β2-m (cynomolgus monkey) (UniProt Q8SPV9)
[5] = biological target: biotinylated human neonatal Fc receptor (hFcRn), p51 subunit with β2-m (human) (UniProt P55899)

Sequence of UniProt Q8SPV9 (Q8SPV9 24-297, chain 1 of 2): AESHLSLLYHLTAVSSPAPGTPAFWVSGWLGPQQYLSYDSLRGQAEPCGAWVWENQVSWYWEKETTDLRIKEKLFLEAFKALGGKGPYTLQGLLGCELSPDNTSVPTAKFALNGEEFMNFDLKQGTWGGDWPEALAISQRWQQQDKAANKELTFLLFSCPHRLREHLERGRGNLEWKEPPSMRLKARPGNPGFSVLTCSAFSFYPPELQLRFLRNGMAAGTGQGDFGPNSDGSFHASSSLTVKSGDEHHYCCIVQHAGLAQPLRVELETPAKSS
Sequence of UniProt Q8SPV9 (Q8SPW0 21-119, chain 2 of 2, further chain): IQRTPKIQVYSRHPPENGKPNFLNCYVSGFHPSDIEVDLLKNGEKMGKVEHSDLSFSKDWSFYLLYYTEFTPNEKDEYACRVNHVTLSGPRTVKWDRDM
Sequence of UniProt P08637 (P08637 17-208): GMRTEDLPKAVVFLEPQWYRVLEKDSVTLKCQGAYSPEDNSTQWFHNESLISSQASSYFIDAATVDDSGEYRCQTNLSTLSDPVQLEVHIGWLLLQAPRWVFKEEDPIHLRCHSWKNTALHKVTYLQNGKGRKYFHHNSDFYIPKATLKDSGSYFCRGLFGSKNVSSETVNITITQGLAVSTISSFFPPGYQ

| Substance | Steady State RU [1] [RU] | Steady State RU [2] [RU] | Kd [3] [nM] | Kd [4] [nM] | Steady State RU, at pH 7.4 [4] [RU] | Kd [5] [nM] | Steady State RU, at pH 7.4 [5] [RU] |
| --- | --- | --- | --- | --- | --- | --- | --- |
| bevacizumab (mAb1) DQ T256D;T307Q | 10.9 | 14 |  |  |  |  |  |
| mAb1 (bevacizumab) with the DW Fc-backbone mutation (T256D/T307W) (antibody) |  |  | 329 | 99 | 14.8 | 126 | 18 |
| adalimumab LS M428L;N434S | 55.7 | 68.4 |  |  |  |  |  |
| adalimumab, wild-type Fc (antibody) |  |  | 194 | 1100 |  | 645 |  |
| bevacizumab (mAb1) LS M428L;N434S | 38.3 | 44 |  |  |  |  |  |
| mAb1 (bevacizumab) with the YD Fc-backbone mutation (M252Y/T256D) (antibody) |  |  | 645 | 120 | 22.2 | 86 | 27 |
| mAb1 (bevacizumab) with the LS Fc-backbone mutation (M428L/N434S) (antibody) |  |  | 307 | 210 | 38.3 |  | 44 |
| bevacizumab (mAb1) YD M252Y;T256D | 22.2 | 27 |  |  |  |  |  |

The next lines start with the values.

| Steady State RU [1] [RU] | Steady State RU [2] [RU] | Kd [3] [nM] | Kd [4] [nM] | Steady State RU, at pH 7.4 [4] [RU] | Kd [5] [nM] | Steady State RU, at pH 7.4 [5] [RU] | Substance |
| --- | --- | --- | --- | --- | --- | --- | --- |
| 1.3 | 1.3 |  |  |  |  |  | bevacizumab (mAb1) WT Fc |
| 2.5 | 2.7 |  |  |  |  |  | adalimumab WT Fc (labelled mAb2 in Table 2, mAb3 in Tables 1 and 3) |
|  |  | 377 | 1440 |  | 500 |  | mAb1 (bevacizumab), wild-type Fc (antibody) |
|  |  | 196 | 48 | 55.7 | 500 | 68.4 | adalimumab with the LS Fc-backbone mutation (M428L/N434S) (antibody) |
|  |  | 361 | 110 | 10.9 | 89 | 14 | mAb1 (bevacizumab) with the DQ Fc-backbone mutation (T256D/T307Q) (antibody) |
| 14.8 | 18 |  |  |  |  |  | bevacizumab (mAb1) DW T256D;T307W |
